{
  "source": "patent US20200261595A1",
  "about": "(Novo Nordisk, published 2020)",
  "binders": {"B1": {"name": "A14E, A21G, A22(GQAPGQAPGQAPGQEP)6-GQAP, A122K^, A123P, B25H, B29R, desB30 human insulin/(227A, 234A, 235K, 297E, 315Q, 384Q, des447 hIgG4-Fc(228-447)) … (other)", "chain 1": "GIVEQCCTSICSLEQLENYCGGQAPGQAPGQAPGQEPGQAPGQAPGQAPGQEPGQAPGQAPGQAPGQEPGQAPGQAPGQAPGQEPGQAPGQAPGQAPGQEPGQAPGQAPGQAPGQEPGQAPKP", "chain 2": "FVNQHLCGSHLVEALYLVCGERGFHYTPR", "chain 3": "ASCPAPEAKGGPSVFLFPPKPKDTLMISRTPEVTCVVVDVSQEDPEVQFNWYVDGVEVHNAKTKPREEQFESTYRVVSVLTVLHQDWLQGKEYKCKVSNKGLPSSIEKTISKAKGQPREPQVYTLPPSQEEMTKNQVSLTCLVKGFYPSDIAVEWESQGQPENNYKTTPPVLDSDGSFFLYSRLTVDKSRWQEGNVFSCSVMHEALHNHYTQKSLSLSLG", "modifications": "Cys229 (EU numbering) sulphur bound to an acetyl arm of the linker; A122K N(eps) acylated by the trivalent linker 4-[bis[2-[(2-acetyl)amino]ethyl]amino]-4-oxo-butanoyl", "notes": "also called Ex 5.20"}, "B2": {"name": "(A14E, A21G, A22(GQAP)18, A94G, A95Q, A96A, A97K^, A98P, B29R, desB30 human insulin)/(227A, 234A, 235K, 297E, 315Q, 384Q, des447 hIgG4-Fc(228-447)) … (other)", "chain 1": "GIVEQCCTSICSLEQLENYCGGQAPGQAPGQAPGQAPGQAPGQAPGQAPGQAPGQAPGQAPGQAPGQAPGQAPGQAPGQAPGQAPGQAPGQAPGQAKP", "chain 2": "FVNQHLCGSHLVEALYLVCGERGFFYTPR", "chain 3": "B1 chain 3", "modifications": "Cys229 (EU numbering) sulphur bound to an acetyl arm of the linker; A97K N(eps) acylated by the trivalent linker 4-[bis[2-[(2-acetyl)amino]ethyl]amino]-4-oxo-butanoyl", "notes": "also called Ex 5.26"}, "B3": {"name": "(A14A, A21G, A22(GQAP)18, A94G, A95Q, A96A, A97K^, A98P, B29R, desB30 human insulin)/(227A, 234A, 235K, 297E, 315Q, 384Q, des447 hIgG4-Fc(228-447)) … (other)", "chain 1": "B2 chain 1 with E14A", "chain 2": "FVNQHLCGSHLVEALYLVCGERGFFYTPR", "chain 3": "B1 chain 3", "modifications": "Cys229 (EU numbering) sulphur bound to an acetyl arm of the linker; A97K N(eps) acylated by the trivalent linker 4-[bis[2-[(2-acetyl)amino]ethyl]amino]-4-oxo-butanoyl", "notes": "also called Ex 5.25"}, "B4": {"name": "(A14E, A21G, A22(GQAP)24, A118G, A119Q, A120A, A121K^, A122P, B25H, B29R, desB30 human insulin)/(227A, 234A, 235K, 297E, 315Q, 384Q, des447 hIgG4-Fc(228-447)) … (other)", "chain 1": "GIVEQCCTSICSLEQLENYCGGQAPGQAPGQAPGQAPGQAPGQAPGQAPGQAPGQAPGQAPGQAPGQAPGQAPGQAPGQAPGQAPGQAPGQAPGQAPGQAPGQAPGQAPGQAPGQAPGQAKP", "chain 2": "FVNQHLCGSHLVEALYLVCGERGFHYTPR", "chain 3": "B1 chain 3", "modifications": "Cys229 (EU numbering) sulphur bound to an acetyl arm of the linker; A121K N(eps) acylated by the trivalent linker 4-[bis[2-[(2-acetyl)amino]ethyl]amino]-4-oxo-butanoyl", "notes": "also called Ex 5.23"}, "B5": {"name": "(A14E, A21G, A22(GQAP)24, A118G, A119Q, A120A, A121K^, A122P, B25H, B29R, desB30 human insulin)/(227A, 234A, 235K, 297E, 315Q, 384Q, des447 hIgG4-Fc(228-447)) … (other)", "chain 1": "B4 chain 1", "chain 2": "FVNQHLCGSHLVEALYLVCGERGFHYTPR", "chain 3": "B1 chain 3", "modifications": "Cys229 (EU numbering) sulphur bound to an acetyl arm of the linker; A121K N(eps) acylated by the trivalent linker 3,5-bis[(2-acetyl)amino]benzoyl", "notes": "also called Ex 5.22"}, "B6": {"name": "(A14E, A21G, A22(GQAP)24, A118G, A119Q, A120A, A121K^, A122P, B29R, desB30 human insulin)/(227A, 234A, 235K, 297E, 315Q, 384Q, des447 hIgG4-Fc(228-447)) … (other)", "chain 1": "B4 chain 1", "chain 2": "FVNQHLCGSHLVEALYLVCGERGFFYTPR", "chain 3": "B1 chain 3", "modifications": "Cys229 (EU numbering) sulphur bound to an acetyl arm of the linker; A121K N(eps) acylated by the trivalent linker 3,5-bis[(2-acetyl)amino]benzoyl", "notes": "also called Ex 5.29"}, "B7": {"name": "A14E, A21G, A22(GQEP)6, A46K^, A47P, B25H, B29R, desB30 human insulin/(227A, 234A, 235K, 297E, 315Q, 384Q, des447 hIgG4-Fc(228-447)) … (other)", "chain 1": "GIVEQCCTSICSLEQLENYCGGQEPGQEPGQEPGQEPGQEPGQEPKP", "chain 2": "FVNQHLCGSHLVEALYLVCGERGFHYTPR", "chain 3": "B1 chain 3", "modifications": "Cys229 (EU numbering) sulphur bound to an acetyl arm of the linker; A46K N(eps) acylated by the trivalent linker 4-[bis[2-[(2-acetyl)amino]ethyl]amino]-4-oxo-butanoyl", "notes": "also called Ex 5.32"}, "B8": {"name": "A14E, A21G, A22(GQAPGQAPGQEP)6-GQAP, A98K^, A99P, B3Q, B25H, B29R, desB30 human insulin/(227A, 234A, 235K hIgG4-Fc(228-447)) … (other)", "chain 1": "GIVEQCCTSICSLEQLENYCGGQAPGQAPGQEPGQAPGQAPGQEPGQAPGQAPGQEPGQAPGQAPGQEPGQAPGQAPGQEPGQAPGQAPGQEPGQAPKP", "chain 2": "FVQQHLCGSHLVEALYLVCGERGFHYTPR", "chain 3": "ASCPAPEAKGGPSVFLFPPKPKDTLMISRTPEVTCVVVDVSQEDPEVQFNWYVDGVEVHNAKTKPREEQFNSTYRVVSVLTVLHQDWLNGKEYKCKVSNKGLPSSIEKTISKAKGQPREPQVYTLPPSQEEMTKNQVSLTCLVKGFYPSDIAVEWESNGQPENNYKTTPPVLDSDGSFFLYSRLTVDKSRWQEGNVFSCSVMHEALHNHYTQKSLSLSLGK", "modifications": "Cys229 (EU numbering) sulphur bound to an acetyl arm of the linker; A98K N(eps) acylated by the trivalent linker 4-[bis[2-[(2-acetyl)amino]ethyl]amino]-4-oxo-butanoyl", "notes": "also called Ex 5.5"}, "B9": {"name": "A14E, A21G, A22(GQEP)19, A98K^, A99P, B3Q, B25H, B29R, desB30 human insulin/(227A, 234A, 235K hIgG4-Fc(228-447)) … (other)", "chain 1": "GIVEQCCTSICSLEQLENYCGGQEPGQEPGQEPGQEPGQEPGQEPGQEPGQEPGQEPGQEPGQEPGQEPGQEPGQEPGQEPGQEPGQEPGQEPGQEPKP", "chain 2": "FVQQHLCGSHLVEALYLVCGERGFHYTPR", "chain 3": "B8 chain 3", "modifications": "Cys229 (EU numbering) sulphur bound to an acetyl arm of the linker; A98K N(eps) acylated by the trivalent linker 4-[bis[2-[(2-acetyl)amino]ethyl]amino]-4-oxo-butanoyl", "notes": "also called Ex 5.6"}, "B10": {"name": "A14E, A21G, A22(GQEP)3, A34G, A35Q, A36E, A37K^, A38P, B25H, B29R, desB30 human insulin/(227A, 234A, 235K hIgG4-Fc(228-447)) … (other)", "chain 1": "GIVEQCCTSICSLEQLENYCGGQEPGQEPGQEPGQEKP", "chain 2": "FVNQHLCGSHLVEALYLVCGERGFHYTPR", "chain 3": "B8 chain 3", "modifications": "Cys229 (EU numbering) sulphur bound to an acetyl arm of the linker; A37K N(eps) acylated by the trivalent linker 4-[bis[2-[(2-acetyl)amino]ethyl]amino]-4-oxo-butanoyl", "notes": "also called Ex 5.10"}, "B11": {"name": "(A1(N(alpha)acetyl), A14E, A21G, A22(GQAP)19, A98K^, A99P, B1(N(alpha)acetyl), B25H, B29R, desB30 human insulin)/(227A, 234A, 235K, 297E, 315Q, 384Q, des447 … (other)", "chain 1": "B8 chain 1 with E32A, E44A, E56A, E68A, E80A, E92A", "chain 2": "FVNQHLCGSHLVEALYLVCGERGFHYTPR", "chain 3": "B1 chain 3", "modifications": "Cys229 (EU numbering) sulphur bound to an acetyl arm of the linker; B1 N(alpha)-acetyl; A1 N(alpha)-acetyl; A98K N(eps) acylated by the trivalent linker 4-[bis[2-[(2-acetyl)amino]ethyl]amino]-4-oxo-butanoyl", "notes": "Chemical insulin-Fc conjugate; also called Ex 5.27"}, "B12": {"name": "(A14E, A21G, A22(GQEP)19, 98K^, A99P, B25H, B29R, desB30 human insulin)/(226A, 227G, 228P, 234A, 235K, des447 hIgG4-Fc(228-447)) … (other)", "chain 1": "B9 chain 1", "chain 2": "FVNQHLCGSHLVEALYLVCGERGFHYTPR", "chain 3": "AGPCPAPEAKGGPSVFLFPPKPKDTLMISRTPEVTCVVVDVSQEDPEVQFNWYVDGVEVHNAKTKPREEQFNSTYRVVSVLTVLHQDWLNGKEYKCKVSNKGLPSSIEKTISKAKGQPREPQVYTLPPSQEEMTKNQVSLTCLVKGFYPSDIAVEWESNGQPENNYKTTPPVLDSDGSFFLYSRLTVDKSRWQEGNVFSCSVMHEALHNHYTQKSLSLSLG", "modifications": "Cys229 (EU numbering) sulphur bound to an acetyl arm of the linker; A98K N(eps) acylated by the trivalent linker 3,5-bis[(2-acetyl)amino]benzoyl"}},
  "note": "Numbering of substitutions follows the chain as printed. In names and notes the source's numbering stands.",
  "data": [
    {"molecular_target": "insulin receptor A (UniProt P06213-2 28-1370, limits assumed)", "sequence (P06213 other isoform, or with tags, fused parts or gaps limits assumed)": "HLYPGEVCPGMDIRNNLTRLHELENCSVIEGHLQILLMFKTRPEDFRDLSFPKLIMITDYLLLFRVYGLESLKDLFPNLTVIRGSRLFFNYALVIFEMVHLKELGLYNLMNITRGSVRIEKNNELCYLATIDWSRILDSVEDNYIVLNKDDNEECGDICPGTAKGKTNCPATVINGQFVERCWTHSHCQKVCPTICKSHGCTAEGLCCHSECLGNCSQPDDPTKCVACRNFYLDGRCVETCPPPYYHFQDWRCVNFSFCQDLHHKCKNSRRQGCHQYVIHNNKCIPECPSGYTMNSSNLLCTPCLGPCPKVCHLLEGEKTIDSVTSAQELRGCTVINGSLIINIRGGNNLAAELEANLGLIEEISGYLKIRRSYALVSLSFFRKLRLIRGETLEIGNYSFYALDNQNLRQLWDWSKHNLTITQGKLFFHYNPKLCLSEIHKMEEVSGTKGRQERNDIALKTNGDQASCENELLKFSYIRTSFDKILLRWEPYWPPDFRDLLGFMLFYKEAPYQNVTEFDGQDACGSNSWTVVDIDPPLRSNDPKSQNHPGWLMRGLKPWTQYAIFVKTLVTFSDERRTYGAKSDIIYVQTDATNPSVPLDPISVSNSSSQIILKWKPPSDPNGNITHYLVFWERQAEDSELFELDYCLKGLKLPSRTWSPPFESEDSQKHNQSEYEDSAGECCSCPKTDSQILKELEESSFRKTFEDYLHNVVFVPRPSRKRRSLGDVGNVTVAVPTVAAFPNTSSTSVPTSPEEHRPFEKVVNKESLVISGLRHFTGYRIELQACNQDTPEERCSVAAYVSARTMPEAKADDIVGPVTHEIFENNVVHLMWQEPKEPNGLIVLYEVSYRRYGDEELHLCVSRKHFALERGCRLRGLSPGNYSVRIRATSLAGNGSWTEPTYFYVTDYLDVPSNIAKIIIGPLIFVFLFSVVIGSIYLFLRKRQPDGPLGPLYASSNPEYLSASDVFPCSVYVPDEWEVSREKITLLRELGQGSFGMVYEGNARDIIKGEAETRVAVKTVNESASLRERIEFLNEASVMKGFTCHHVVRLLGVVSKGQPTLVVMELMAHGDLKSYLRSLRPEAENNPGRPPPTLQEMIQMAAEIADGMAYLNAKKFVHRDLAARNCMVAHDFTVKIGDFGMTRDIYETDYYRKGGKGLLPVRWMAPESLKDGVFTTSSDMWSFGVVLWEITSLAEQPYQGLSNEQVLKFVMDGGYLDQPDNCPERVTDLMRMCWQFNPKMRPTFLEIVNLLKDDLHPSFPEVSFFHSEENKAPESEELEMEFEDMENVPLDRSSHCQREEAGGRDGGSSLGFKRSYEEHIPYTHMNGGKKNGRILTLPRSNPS", "test": "insulin receptor binding assay as in Vienberg et al. 2011; relative to human insulin on insulin receptor A (100%)", "units": {"Insulin receptor affinity [IC50 relative to HI (%)]": "%"}, "values": [
      {"binder": "B1", "Insulin receptor affinity [IC50 relative to HI (%)]": 5.49},
      {"binder": "B2", "Insulin receptor affinity [IC50 relative to HI (%)]": 3.95},
      {"binder": "B3", "Insulin receptor affinity [IC50 relative to HI (%)]": 4.49},
      {"binder": "B4", "Insulin receptor affinity [IC50 relative to HI (%)]": 4.7},
      {"binder": "B5", "Insulin receptor affinity [IC50 relative to HI (%)]": 3.56},
      {"binder": "B6", "Insulin receptor affinity [IC50 relative to HI (%)]": 3.06},
      {"binder": "B7", "Insulin receptor affinity [IC50 relative to HI (%)]": 2.16},
      {"binder": "B8", "Insulin receptor affinity [IC50 relative to HI (%)]": 3.34},
      {"binder": "B9", "Insulin receptor affinity [IC50 relative to HI (%)]": 5.07},
      {"binder": "B10", "Insulin receptor affinity [IC50 relative to HI (%)]": 2.47},
      {"binder": "B11", "Insulin receptor affinity [IC50 relative to HI (%)]": 1.07},
      {"binder": "B12", "Insulin receptor affinity [IC50 relative to HI (%)]": 3.85}
    ]},
    {"molecular_target": "insulin receptor of isolated rat adipocytes (rat, UniProt P15127 27-1383)", "sequence (P15127 27-1383)": "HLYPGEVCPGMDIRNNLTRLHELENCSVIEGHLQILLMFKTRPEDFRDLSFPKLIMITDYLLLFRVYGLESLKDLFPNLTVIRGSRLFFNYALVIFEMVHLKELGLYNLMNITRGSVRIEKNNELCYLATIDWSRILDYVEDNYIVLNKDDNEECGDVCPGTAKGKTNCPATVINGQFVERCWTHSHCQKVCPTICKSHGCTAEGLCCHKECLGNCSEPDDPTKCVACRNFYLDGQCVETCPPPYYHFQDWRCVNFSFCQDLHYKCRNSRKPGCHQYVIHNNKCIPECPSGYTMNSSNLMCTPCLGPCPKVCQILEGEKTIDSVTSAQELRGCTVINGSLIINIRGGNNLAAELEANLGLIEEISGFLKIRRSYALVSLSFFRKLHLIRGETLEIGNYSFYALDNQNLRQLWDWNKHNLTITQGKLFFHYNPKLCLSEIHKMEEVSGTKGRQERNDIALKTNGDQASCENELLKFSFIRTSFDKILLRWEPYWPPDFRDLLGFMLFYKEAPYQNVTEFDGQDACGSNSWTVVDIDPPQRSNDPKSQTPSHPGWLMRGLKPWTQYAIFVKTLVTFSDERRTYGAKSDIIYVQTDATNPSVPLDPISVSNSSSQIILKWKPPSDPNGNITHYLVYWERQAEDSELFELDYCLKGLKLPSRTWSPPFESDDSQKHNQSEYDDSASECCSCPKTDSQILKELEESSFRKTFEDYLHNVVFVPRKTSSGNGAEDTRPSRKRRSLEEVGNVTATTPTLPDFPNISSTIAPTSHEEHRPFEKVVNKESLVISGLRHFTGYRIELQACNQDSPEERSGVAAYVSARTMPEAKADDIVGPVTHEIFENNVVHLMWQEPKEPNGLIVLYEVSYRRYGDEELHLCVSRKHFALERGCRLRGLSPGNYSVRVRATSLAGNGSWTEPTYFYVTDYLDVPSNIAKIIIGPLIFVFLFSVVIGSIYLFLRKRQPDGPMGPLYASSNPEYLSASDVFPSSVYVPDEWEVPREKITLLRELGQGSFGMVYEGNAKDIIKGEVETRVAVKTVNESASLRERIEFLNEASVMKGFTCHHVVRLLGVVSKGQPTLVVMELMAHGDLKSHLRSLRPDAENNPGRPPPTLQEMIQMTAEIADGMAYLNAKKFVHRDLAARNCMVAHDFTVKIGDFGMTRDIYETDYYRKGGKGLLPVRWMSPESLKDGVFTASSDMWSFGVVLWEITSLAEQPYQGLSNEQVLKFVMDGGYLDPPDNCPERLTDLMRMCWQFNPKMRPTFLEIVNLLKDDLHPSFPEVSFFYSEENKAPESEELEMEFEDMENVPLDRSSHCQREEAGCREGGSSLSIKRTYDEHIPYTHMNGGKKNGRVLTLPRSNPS", "test": "cell-based or functional assay", "values": [
      {"binder": "B1", "Lipogenesis in rat adipocytes [Potency (%)] Mean Value": "5.41 % of human insulin"},
      {"binder": "B2", "Lipogenesis in rat adipocytes [Potency (%)] Mean Value": "3.23 % of human insulin"},
      {"binder": "B3", "Lipogenesis in rat adipocytes [Potency (%)] Mean Value": "2.08 % of human insulin"},
      {"binder": "B4", "Lipogenesis in rat adipocytes [Potency (%)] Mean Value": "5.36 % of human insulin"},
      {"binder": "B5", "Lipogenesis in rat adipocytes [Potency (%)] Mean Value": "4.64 % of human insulin"},
      {"binder": "B6", "Lipogenesis in rat adipocytes [Potency (%)] Mean Value": "2.64 % of human insulin"},
      {"binder": "B7", "Lipogenesis in rat adipocytes [Potency (%)] Mean Value": "3.72 % of human insulin"},
      {"binder": "B8", "Lipogenesis in rat adipocytes [Potency (%)] Mean Value": "2.21 % of human insulin"}
    ]}
  ]
}
